Read-outs that look alike come from different tables or passages of the source.
Key:
[1] = target: T1, human 4-1BB on the surface of HEK293-Hu4-1BB cells (human, UniProt Q07011 24-255); assay: FACS on HEK293 cells highly expressing human 4-1BB
T1 construct: whole, on cells; also called CD137; human 4-1BB antigen
From the text: (§1) HEK293-Hu4-1BB cells were obtained by transient transfection of HEK293 cells (ATCC CRL-1573) with a gene expressing human 4-1BB protein or polypeptide (CD137 cDNA ORF Clone, Human, C-OFPSpark tag; purchased from Sino Biological, Cat #HG10041-ACR). The cell culture medium was DMEM (Gibco, Cat #11995065) containing 10% fetal bovine serum. The experimental medium was sterile PBS (phosphate-buffered saline, pH 7.40) containing 2% fetal bovine serum. HEK293-Hu4-1BB cells were washed with the experimental medium twice and seeded into a 96-well U-bottom plate at 1×10⁵ HEK293-Hu4-1BB cells per well. Different concentrations of the anti-4-1BB single-domain antibody VHH-Fc samples to be tested were added. The cells were incubated at 4° C. for 1 h and then washed with the experimental medium twice. Then the goat anti-human IgG (H+L) Alexa Fluor 488 antibody (Thermo, Cat #A11013) was added. After two washes, fluorescence signal values were measured using a flow cytometer. Urelumab was used as a positive control.
A comparison of the antigen-binding activity of C5_V2 and C5_V2-YTI was made using a FACS assay as described in Example 5.

[2] = target: T1, human 4-1BB on the surface of …; assay: cell-based or functional assay
[3] = target: T1, human 4-1BB on the surface of …; assay: cell-based or functional assay; remark: listed apart in the source
[4] = target: T1, human 4-1BB on the surface of …; assay: FACS on HEK293 cells highly expressing human 4-1BB; remark: listed apart in the source
From the text: as §1
The antigen-binding activity of the humanized antibodies was measured using a FACS assay as described in Example 2.

T1 sequence (Q07011 24-255): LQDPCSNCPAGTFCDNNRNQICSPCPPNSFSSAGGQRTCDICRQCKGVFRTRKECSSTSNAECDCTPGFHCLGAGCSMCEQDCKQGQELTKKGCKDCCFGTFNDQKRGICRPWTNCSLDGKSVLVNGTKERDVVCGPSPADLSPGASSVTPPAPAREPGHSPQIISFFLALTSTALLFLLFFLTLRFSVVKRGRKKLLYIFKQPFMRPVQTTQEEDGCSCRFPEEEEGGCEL

B1: Urelumab (antibody, V domains shown)
VH: QVQLQQWGAGLLKPSETLSLTCAVYGGSFSGYYWSWIRQSPEKGLEWIGEINHGGYVTYNPSLESRVTISVDTSKNQFSLKLSSVTAADTAVYYCARDYGPGNYDWYFDLWGRGTLVTVSS
VL: EIVLTQSPATLSLSPGERATLSCRASQSVSSYLAWYQQKPGQAPRLLIYDASNRATGIPARFSGSGSGTDFTLTISSLEPEDFAVYYCQQRSNWPPALTFGGGTKVEIK
Q: Which EC50 [1] does the source give for B1 here?
A: 1.64 nM

Q: What about the Maximal fluorescence value [1] of the same binder?
A: 39700

Q: What about the “Factor of variation in Emax, FcγRIIb-mediated activation of HEK293-4-1BB cells” value [2] of the same binder?
A: 2.61 fold

Q: And the “Factor of variation in Emax, activation of HEK293-4-1BB cells” value [2]?
A: 1.7 fold

Q: And the “EC50, 4-1BB/NF-κB luciferase reporter, FcγRIIb cross-linking” value [3]?
A: 0.027 nM

Q: And the “EC50, 4-1BB/NF-κB luciferase reporter, no FcγRIIb cross-linking” value [3]?
A: 2.19 nM

Q: And the “Emax, 4-1BB/NF-κB luciferase reporter, FcγRIIb cross-linking” value [3]?
A: 9.39 relative to antibody-free group

Q: And the “Emax, 4-1BB/NF-κB luciferase reporter, no FcγRIIb cross-linking” value [3]?
A: 4.3 relative to antibody-free group

Q: What about the EC50 [4] of the same binder?
A: 1.18 nM

Q: What about the Maximal fluorescence value [4] of the same binder?
A: 1000

Reference: patent US20250026842A1 (JIANGSU HENGRUI PHARMACEUTICALS, published 2025)
